Two molecules from patent US20110027337A1 (IFXA A S, published 2011) can be followed below.

The test system of data set [1] is T1, PIfXa (KPI A-k1, Kunitz protease inhibitor purified from potato tuber, Solanum tuberosum cv. Kuras; SEQ ID NO:1).
T1 sequence: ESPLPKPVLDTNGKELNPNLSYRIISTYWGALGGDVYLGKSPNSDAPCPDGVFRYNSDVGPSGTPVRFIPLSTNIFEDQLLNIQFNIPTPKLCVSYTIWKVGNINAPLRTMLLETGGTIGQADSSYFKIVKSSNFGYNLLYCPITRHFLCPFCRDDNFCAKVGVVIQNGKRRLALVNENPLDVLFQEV

Data set [2] deals with T2, fraction B11SI (cation exchange fraction from potato juice; major inhibitor KPI A-k1, SEQ ID NO:1).
T2 sequence: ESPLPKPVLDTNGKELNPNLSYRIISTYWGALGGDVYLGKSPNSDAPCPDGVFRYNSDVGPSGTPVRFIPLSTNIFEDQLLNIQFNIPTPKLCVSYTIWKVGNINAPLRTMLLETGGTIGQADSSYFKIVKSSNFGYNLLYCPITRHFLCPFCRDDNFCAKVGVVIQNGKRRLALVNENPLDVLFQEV

Data set [3] has as its target T3, factor Xa (fXa).
T3 chain 1: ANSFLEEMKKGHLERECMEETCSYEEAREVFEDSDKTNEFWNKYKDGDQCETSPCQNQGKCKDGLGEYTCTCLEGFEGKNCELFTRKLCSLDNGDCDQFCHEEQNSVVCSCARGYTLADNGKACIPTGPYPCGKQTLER
T3 chain 2: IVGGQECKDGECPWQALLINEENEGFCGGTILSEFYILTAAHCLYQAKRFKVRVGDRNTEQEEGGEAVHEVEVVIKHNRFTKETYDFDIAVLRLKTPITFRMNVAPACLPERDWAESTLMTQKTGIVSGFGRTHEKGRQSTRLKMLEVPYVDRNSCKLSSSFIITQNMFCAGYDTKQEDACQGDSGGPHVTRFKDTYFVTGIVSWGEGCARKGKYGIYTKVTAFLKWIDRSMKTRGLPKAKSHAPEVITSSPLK
Briefly: amidolytic activity assay: chromozym t-PA hydrolysis by 50 nM fXa, competitive inhibition fit, in the presence of 1 U/mL heparin.

For data set [4], the target named is T3, factor Xa (fXa). Description: amidolytic activity assay: chromozym t-PA hydrolysis by 50 nM fXa, competitive inhibition fit (GraphPad Prism).

In data set [1], factor Xa (fXa) displayed a reaction rate of chromozym t-PA hydrolysis by 25 nM fXa with 100 µg/mL PIfXa, no antibody (Ctrl without PIfXa 19.2) of 2 µM/min; a reaction rate of chromozym t-PA hydrolysis by fXa with PIfXa, before addition of antibody (sample PlfXa 1:1) of 2.1 µM/min; a reaction rate of chromozym t-PA hydrolysis by fXa with PIfXa, before addition of antibody (sample PlfXa 1:2.5) of 2.1 µM/min; a reaction rate of chromozym t-PA hydrolysis by fXa with PIfXa, before addition of antibody (sample PlfXa 1:5) of 2.2 µM/min. The molecule also came in with a reaction rate of chromozym t-PA hydrolysis by fXa with PIfXa, before addition of antibody (sample PlfXa 1:10) in data set [1] of 1.4 µM/min. For the same molecule, in data set [2], the KM of chromozym t-PA hydrolysis by fXa with B11SI (fXa alone 0.23) is 1250 µM; the KM of chromozym t-PA hydrolysis by fXa with B11SI and heparin was determined as 1180 µM; the Vmax of chromozym t-PA hydrolysis by fXa with B11SI (fXa alone 8.8 · 10^-2) came to 0.026 mM/min; the Vmax of chromozym t-PA hydrolysis by fXa with B11SI and heparin is 0.023 mM/min.

B1: fraction B11SI (cation exchange fraction from potato juice; major inhibitor KPI A-k1, SEQ ID NO:1) (other)
chain: ESPLPKPVLDTNGKELNPNLSYRIISTYWGALGGDVYLGKSPNSDAPCPDGVFRYNSDVGPSGTPVRFIPLSTNIFEDQLLNIQFNIPTPKLCVSYTIWKVGNINAPLRTMLLETGGTIGQADSSYFKIVKSSNFGYNLLYCPITRHFLCPFCRDDNFCAKVGVVIQNGKRRLALVNENPLDVLFQEV
notes: A chromatography fraction, not a pure protein; By nESI the highest peak is 20,830 Da (KPI A-k1 N-terminal variant 3), with further peaks for variants 4, 2 and 1; also called B1151
For B1, the figures for the Ki with factor Xa (fXa) [3] and in the data set with factor Xa (fXa) [4] were 101 nM and 114 nM, respectively.

What is called Ki is a measure of affinity in units of concentration, obtained from inhibition or displacement.
